Assay results reported in patent US20160122389A1 (PHARIS BIOTEC, published 2016).
No end group written: not given here.

What was measured:
[1] = target: T1, CXC chemokine receptor 4 (CXCR4) (human, UniProt P61073 1-352); experiment: cell-based or functional assay
[2] = target: T1, CXC chemokine receptor 4 (CXCR4); experiment: cell-based or functional assay; remark: listed apart in the source
[3] = target: T2, eGFP-CXCR4 (UniProt P61073 1-352); experiment: competition with 100 nM CXCL12-TexasRed on cells expressing eGFP-CXCR4, real-time fluorescence
T2 construct: whole, on cells; not shown: EGFP part of the fusion
T2 sequence (P61073 whole entry, the tested form may be a part): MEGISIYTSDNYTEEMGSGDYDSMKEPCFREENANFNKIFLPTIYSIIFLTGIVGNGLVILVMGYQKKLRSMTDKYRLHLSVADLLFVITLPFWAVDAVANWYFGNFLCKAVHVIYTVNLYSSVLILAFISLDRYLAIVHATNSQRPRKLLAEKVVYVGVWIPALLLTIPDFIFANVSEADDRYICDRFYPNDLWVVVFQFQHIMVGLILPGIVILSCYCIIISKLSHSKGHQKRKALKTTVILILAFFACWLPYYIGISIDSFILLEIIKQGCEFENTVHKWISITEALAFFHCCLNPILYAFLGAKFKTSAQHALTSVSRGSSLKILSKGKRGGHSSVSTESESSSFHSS
Method: Experiments were performed using cells stably expressing eGFP-CXCR4, suspended in HEPES-bovine serum albumin buffer (10 mM HEPES, 137.5 mM NaCl, 1.25 mM MgCl₂, 1.25 mM CaCl₂, 6 mM KCl, 10 mM glucose, 0.4 mM NaH₂PO₄, 0.1% bovine serum albumin (w/v), pH 7.4) (typically at 10⁶ cells/mL). Time-based recordings of the fluorescence emitted at 510 nm (excitation at 470 nm) were performed at 21° C. using a spectrofluorimeter and sampled every 0.3 s. Fluorescence binding measurements were initiated by adding at 30 s 100 nM of CXCL12-TR to the 1 mL cell suspension. For competition experiments, EGFP-CXCR4 expressing cells were preincubated for 10 min in the absence or presence of various concentrations of unlabelled drugs. Then, CXCL12-TR (100 nM) was added and fluorescence was recorded until equilibrium was reached (300 s). Data were analyzed using Kaleidagraph 3.08 software (Synergy Software, Reading, Pa., USA).

T1 sequence (P61073 whole entry): as the sequence (P61073 whole entry, the tested form may be a part) above

B1: 408I-418 SC (peptide)
peptide: IVRYSKKVPQC
IC50 (µM), blocking of X4 tropic HIV-1 NL4-3 infection [1]: 2.94 µM

B2: 408I-419 WC01 (peptide)
peptide: IVRWTKKVPQVC
IC50 (µM), blocking of X4 tropic HIV-1 NL4-3 infection [1]: 1.65 µM

B3: 408I-419 WSC01 x2 (peptide)
peptide: IVRWSKKVPQCS
modifications: also: homodimer, disulfide between Cys of the two monomers
IC50 (µM), blocking of X4 tropic HIV-1 NL4-3 infection [1]: 0.18 µM

B4: 408I-419 WSC01 (peptide)
peptide: IVRWSKKVPQCS
IC50 (µM), blocking of X4 tropic HIV-1 NL4-3 infection [1]: 0.87 µM

B5: 408I-419 R410K (peptide)
peptide: IVKYTKKVPQVS
IC50 (µM), blocking of X4 tropic HIV-1 NL4-3 infection [1]: > 100 µM

B6: 408-421 (peptide)
peptide: LVRYTKKVPQVSTP
IC50 (µM), blocking of X4 tropic HIV-1 NL4-3 infection [1]: 14 µM

B7: 408I-419 WSC03 (peptide)
peptide: IVRWSKKVCQVS
IC50 (µM), blocking of X4 tropic HIV-1 NL4-3 infection [1]: 1.51 µM

B8: 408-418 (peptide)
peptide: LVRYTKKVPQV
IC50 (µM), blocking of X4 tropic HIV-1 NL4-3 infection [1]: 26.8 µM

B9: 408I-418 SC x2 (peptide)
peptide: IVRYSKKVPQC
modifications: also: homodimer, disulfide between Cys of the two monomers
IC50 (µM), blocking of X4 tropic HIV-1 NL4-3 infection [1]: 0.39 µM

B10: 408-417 (peptide)
peptide: LVRYTKKVPQ
IC50 (µM), blocking of X4 tropic HIV-1 NL4-3 infection [1]: 19.8 µM

B11: 408I-419 WC03 (peptide)
peptide: IVRWCKKVPQVS
IC50 (µM), blocking of X4 tropic HIV-1 NL4-3 infection [1]: 1.82 µM

B12: 408-415-V409A (peptide)
peptide: LARYTKKV
IC50 (µM), blocking of X4 tropic HIV-1 NL4-3 infection [1]: 32.9 µM

B13: 408I-419 Y411F (peptide)
peptide: IVRFTKKVPQVS
IC50 (µM), blocking of X4 tropic HIV-1 NL4-3 infection [1]: 3.89 µM

B14: 408I-419 WSC02 (peptide)
peptide: IVRWSKKVPCVS
IC50 (µM), blocking of X4 tropic HIV-1 NL4-3 infection [1]: 0.31 µM

B15: 408I-419 Y411S (peptide)
peptide: IVRSTKKVPQVS
IC50 (µM), blocking of X4 tropic HIV-1 NL4-3 infection [1]: > 100 µM

B16: 408I-419 WC01_x2 (peptide)
peptide: IVRWTKKVPQVC
modifications: also: homodimer, disulfide between Cys of the two monomers
IC50 (µM), blocking of X4 tropic HIV-1 NL4-3 infection [1]: 0.4 µM

B17: 408-415 (peptide)
peptide: LVRYTKKV
IC50 (µM), blocking of X4 tropic HIV-1 NL4-3 infection [1]: 25.7 µM

B18: 408-415-T412A (peptide)
peptide: LVRYAKKV
IC50 (µM), blocking of X4 tropic HIV-1 NL4-3 infection [1]: 11.2 µM

B19: 408I-419 WC03 x2 (peptide)
peptide: IVRWCKKVPQVS
modifications: also: homodimer, disulfide between Cys of the two monomers
IC50 (µM), blocking of X4 tropic HIV-1 NL4-3 infection [1]: 0.6 µM

B20: 408I-419 V418C x2 (peptide)
peptide: IVRYTKKVPQCS
modifications: also: homodimer, disulfide between Cys of the two monomers
IC50 (µM), blocking of X4 tropic HIV-1 NL4-3 infection [1]: 0.46 µM

B21: 408-419 (peptide)
peptide: LVRYTKKVPQVS
IC50 (µM), blocking of X4 tropic HIV-1 NL4-3 infection [1]: 5.49 µM

B22: 408I-419 V418C (peptide)
peptide: IVRYTKKVPQCS
IC50 (µM), blocking of X4 tropic HIV-1 NL4-3 infection [1]: 3.69 µM

B23: 408-420 (peptide)
peptide: LVRYTKKVPQVST
IC50 (µM), blocking of X4 tropic HIV-1 NL4-3 infection [1]: 15.3 µM

B24: 408I-419 K414C (peptide)
peptide: IVRYTKCVPQVS
IC50 (µM), blocking of X4 tropic HIV-1 NL4-3 infection [1]: 5.87 µM

B25: 408I-419 R410H (peptide)
peptide: IVHYTKKVPQVS
IC50 (µM), blocking of X4 tropic HIV-1 NL4-3 infection [1]: > 100 µM

B26: 408I-419 WC02 x2 (peptide)
peptide: IVRWTCKVPQVS
modifications: also: homodimer, disulfide between Cys of the two monomers
IC50 (µM), blocking of X4 tropic HIV-1 NL4-3 infection [1]: 0.32 µM

B27: 408-422 (peptide)
peptide: LVRYTKKVPQVSTPT
IC50 (µM), blocking of X4 tropic HIV-1 NL4-3 infection [1]: 13.4 µM

B28: 407-419 (peptide)
peptide: LLVRYTKKVPQVS
IC50 (µM), blocking of X4 tropic HIV-1 NL4-3 infection [1]: 11.1 µM

B29: 408I-419 K414C x2 (peptide)
peptide: IVRYTKCVPQVS
modifications: also: homodimer, disulfide between Cys of the two monomers
IC50 (µM), blocking of X4 tropic HIV-1 NL4-3 infection [1]: 1.05 µM

B30: 408I-419 T412S (peptide)
peptide: IVRYSKKVPQVS
IC50 (µM), blocking of X4 tropic HIV-1 NL4-3 infection [1]: 2.09 µM

B31: 408I-419 WC02 (peptide)
peptide: IVRWTCKVPQVS
IC50 (µM), blocking of X4 tropic HIV-1 NL4-3 infection [1]: 2.1 µM

B32: 408I-419 Y411W (peptide)
peptide: IVRWTKKVPQVS
IC50 (µM), blocking of X4 tropic HIV-1 NL4-3 infection [1]: 1.54 µM

B33: peptide of SEQ ID NO 16 (408-423) (peptide)
peptide: LVRYTKKVPQVSTPTL
notes: Chemically synthesized fragment of human serum albumin (HSA)
mean 50% inhibitory concentration (IC50) of infection by X4 HIV-1 strains [2]: 15.8 µg/mL
IC50 (µM), blocking of X4 tropic HIV-1 NL4-3 infection [1]: 8.63 µM
Ki [3]: 3000 nM

B34: 408I-419 WSC02 x2 (peptide)
peptide: IVRWSKKVPCVS
modifications: also: homodimer, disulfide between Cys10 of two monomers
IC50 (µM), blocking of X4 tropic HIV-1 NL4-3 infection [1]: 0.12 µM

B35: 408I-419 (peptide)
peptide: IVRYTKKVPQVS
IC50 (µM), blocking of X4 tropic HIV-1 NL4-3 infection [1]: 2.48 µM
